Measurements taken from US20130303449A1 (University of California, published 2013).
Positions of bridges follow the written chain, without caps; N, C: chain ends. No end group written: not given here.

Key:
recombinant human BMP-2 [1] = molecular target: T1, recombinant human BMP-2 (human, UniProt P12643 283-396); experiment: cell-based or functional assay
recombinant human BMP-2 [2] = molecular target: T1, recombinant human BMP-2; experiment: SPR (Biacore X), rhBMP-2 on CM-5 chip, peptide at 1×10^-5 to 1×10^-4 M in solution
Experimental: Buffers and chips for the procedure were obtained from Biacore. […] This material was then attached to a CM-5 sensor chip using reagents and procedures supplied by the manufacturer. Running buffer was 10 mM HEPES, pH 7.4, 150 mM NaCl, 3 mM EDTA, 0.005% Surfactant P20. The peptide was dissolved in running buffer at concentrations ranging from 1×10⁻⁵ to 1×10⁻⁴ M. Flow rates from 5 to 50 μl/min and injection volumes of 20 to 100 μl were employed. The regeneration solution was […] glycine-HCl, pH 2.0.

T1 sequence (P12643 283-396 limits assumed): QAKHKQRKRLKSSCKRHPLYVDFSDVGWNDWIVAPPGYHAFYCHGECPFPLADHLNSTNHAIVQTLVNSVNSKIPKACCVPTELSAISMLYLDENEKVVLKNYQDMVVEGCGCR

retention of labeled rhBMP-2 on collagen sponges implanted in rodent muscle pouches (1, 3 and 7 days) (recombinant human BMP-2 [1]): ~2 fold
Kd (recombinant human BMP-2 [2]): 30 µM
B1: cyclized BMP Binding Peptide (BBP), bovine (peptide)
peptide: CRSTVRMSAEQVQNVWVRC
modifications: disulfide 1-19 (inferred)
notes: Synthetic 19 amino acid cyclic peptide, 2.1 kD; Reduction with β-mercaptoethanol decyclizes it, which implies a disulfide; also called cyclized BBP
